This test deals with ADPr-TAMRA (ADPrT). Briefly: fluorescence polarisation. The following applies: read at the highest titration point, about 75 µM RNF114 (left graph); parent: est. 50; read off a plot. For orientation: In fluorescence polarisation assays a small probe gives low polarisation when free and higher when bound to something large.

In the case of “RNF114 (wild type, full-length) (from UniProt Q9Y508) W181D; G182E”, the response is 6. For “RNF114 (wild type, full-length) (from UniProt Q9Y508) R198E”, the response was 13.

These data come from article PMC12583694, “RNF114 and RNF166 exemplify reader-writer E3 ligases that extend K11 polyubiquitin onto sites of MARUbylation” (The EMBO Journal, 2025).
